Experimental findings from publication doi:10.1101/2023.06.15.545135, “Structure of mechanically activated ion channel OSCA2.3 reveals mobile elements in the transmembrane domain” (bioRxiv, 2023) are described below.

In data set [1] the target is Arabidopsis thaliana OSCA1.2 (Arabidopsis thaliana) (UniProt Q5XEZ5). Nature of the data set: cryo-EM structure; OSCA1.2 reconstituted in peptidiscs, ~8 mg/mL; 2.8 Å map, C2 symmetry imposed.
Data set [2] concerns the molecule itself. Described as above.
Data set [3] concerns the molecule itself. Nature of the data set: cryo-EM structure; OSCA2.3 reconstituted in peptidiscs, ~3.6 mg/mL, TBS with 2 mM DTT; 2.7 Å map, C2 symmetry imposed.

As to NSPr peptide (peptidisc peptide), the stoichiometry N – broadly, the number of molecules, sites or subunits per partner or assembly – in data set [1] turned out to be 4 per protomer.

B1: Arabidopsis thaliana OSCA1.2 (natural protein)
chain: MATLQDIGVSAGINILSAFVFFIIFAVLRLQPFNDRVYFSKWYLKGLRSSPARGGAFAQRFVNLDFRSYMKFLNWMPEALKMPEPELIDHAGLDSVVYLRIYWLGLKIFTPIAVLAWAVLVPVNWTNNTLEMAKQLRNVTSSDIDKLSVSNIPEYSMRFWTHIVMAYAFTIWTCYVLMKEYETIANMRLQFVASEARRPDQFTVLVRNVPPDADESVSELVEHFFLVNHPDHYLTHQVVCNANKLADLVKKKKKLQNWLDYYQLKYARNNSQRIMVKLGFLGLWGQKVDAIEHYIAEIDKISKEISKEREEVVNDPKAIMPAAFVSFKTRWAAAVCAQTQQTRNPTQWLTEWAPEPRDVFWSNLAIPYVSLTVRRLIMHVAFFFLTFFFIVPIAFVQSLATIEGIVKAAPFLKFIVDDKFMKSVIQGFLPGIALKLFLAFLPSILMIMSKFEGFTSISSLERRAAFRYYIFNLVNVFLASVIAGAAFEQLNSFLNQSANQIPKTIGVAIPMKATFFITYIMVDGWAGVAGEILMLKPLIMFHLKNAFLVKTDKDREEAMDPGSIGFNTGEPRIQLYFLLGLVYAPVTPMLLPFILVFFALAYIVYRHQIINVYNQEYESAAAFWPDVHGRVIAALVISQLLLMGLLGTKHAALAAPFLIALPVLTIGFHHFCKGRYEPAFIRYPLQEAMMKDTLETAREPNLNLKGYLQNAYVHPVFKGDEDDYDIDDKLGKFEDEAIIVPTKRQSRRNTPAPSIISGDDSPSLPFSGKLV
notes: OSCA1.2 of Arabidopsis thaliana, UniProt Q5XEZ5; Final model holds residues 2-50, 71-121, 157-266, 290-487, 505-648, 654-718; also called AtOSCA1.2
With B1, the binding result in data set [2] is reported as “binds”.

B2: Arabidopsis thaliana OSCA2.3 (natural protein, UniProt Q8GUH7 1-703, looked up)
chain: MLLSALLTSVGINLGLCFLFFTLYSILRKQPSNVTVYGPRLVKKDGKSQQSNEFNLERLLPTAGWVKRALEPTNDEILSNLGLDALVFIRVFVFSIRVFSFASVVGIFILLPVNYMGTEFEEFFDLPKKSMDNFSISNVNDGSNKLWIHFCAIYIFTAVVCSLLYYEHKYILTKRIAHLYSSKPQPQEFTVLVSGVPLVSGNSISETVENFFREYHSSSYLSHIVVHRTDKLKVLMNDAEKLYKKLTRVKSGSISRQKSRWGGFLGMFGNNVDVVDHYQKKLDKLEDDMRLKQSLLAGEEVPAAFVSFRTRHGAAIATNIQQGIDPTQWLTEAAPEPEDVHWPFFTASFVRRWISNVVVLVAFVALLILYIVPVVLVQGLANLHQLETWFPFLKGILNMKIVSQVITGYLPSLIFQLFLLIVPPIMLLLSSMQGFISHSQIEKSACIKLLIFTVWNSFFANVLSGSALYRVNVFLEPKTIPRVLAAAVPAQASFFVSYVVTSGWTGLSSEILRLVPLLWSFITKLFGKEDDKEFEVPSTPFCQEIPRILFFGLLGITYFFLSPLILPFLLVYYCLGYIIYRNQLLNVYAAKYETGGKFWPIVHSYTIFSLVLMHIIAVGLFGLKELPVASSLTIPLPVLTVLFSIYCQRRFLPNFKSYPTQCLVNKDKADEREQNMSEFYSELVVAYRDPALSASQDSRDISP
notes: OSCA2.3 of Arabidopsis thaliana, UniProt Q8GUH7, full-length, human codon optimized cDNA; 703 residues as printed; C-terminal PreScission Protease site with 4-5 residue linkers before the tags; After PreScission cleavage, remnants of the linker and of the cleavage site stay at the C-terminus; Final model holds residues 3-26, 65-115, 129-225, 302-368, 410-517 and 536-691; also called AtOSCA2.3; …
B2: the “stoichiometry N” value in data set [3] is 2.
